Measurements as given in patent US7250304B2, “Functional assay of high-density lipoprotein” (The Regents of the University of California, priority 2000, dated 2007).

Legend:
[1] = test system: human artery wall cell cocultures; assay: LDL oxidation by human artery wall cell cocultures (lipid hydroperoxides); assay type: cell-based
Method: (§1) The wells of the microtiter plates were treated with 0.1% gelatin at 37° C. overnight. HASMC were added at a confluent density of 1×10^5 cells/cm^2. Cells were cultured for 2 d at which time they had covered the entire surface of the well and had produced a substantial amount of extracellular matrix. HAEC were subsequently added at 2×10^5 cells/cm^2 and were allowed to grow forming a complete monolayer of confluent HAEC in 2 d. In all experiments, HAEC and autologous HASMC (from the same donor) were used at passage levels of four to six.
In general, the cocultures were treated with native LDL (250 μg/ml) in the absence or presence of HDL for 8 h. The supernatants were collected and used for determination of lipid hydroperoxide levels. The cocultures were subsequently washed and fresh culture medium 199 (M199) without any additions was added and incubated for an additional 8 hrs. This allowed the collection of monocyte chemotactic activity released by the cells as a result of stimulation by the oxidized LDL. At the end of incubation, the supernatants were collected from cocultures, diluted 40-fold, and assayed for monocyte chemotactic activity. […] The number of migrated monocytes was determined microscopically and expressed as the mean±SD of 12 standardized high power fields counted in quadruple wells.
Statistical significance was determined by model 1 ANOVA. […]

[2] = test system: human artery wall cell cocultures; assay: Monocyte chemotaxis assay on coculture conditioned medium; assay type: cell-based; conditions: cocultures incubated 8 hrs with agent, agent removed before LDL
Method: as §1
Monocytes were isolated using a modification of the Recalde method as previously described (Fogelman et al. (1988) J. Lipid Res. 29: 1243-1247) from the blood of normal volunteers after obtaining written consent under a protocol approved by the human research subject protection committee of the University of California, Los Angeles.
In general, the cocultures were treated with native LDL (250 μg/ml) in the absence or presence of HDL for 8 h. The supernatants were collected and used for determination of lipid hydroperoxide levels. The cocultures were subsequently washed and fresh culture medium 199 (M199) without any additions was added and incubated for an additional 8 hrs. […] The number of migrated monocytes was determined microscopically and expressed as the mean±SD of 12 standardized high power fields counted in quadruple wells.

[3] = test system: Ox-PAPC, POVPC, PGPC, PEIPC; assay type: cell-based, human

B1: PON: purified human paraoxonase, HDL associated enzyme (protein, UniProt P27169 2-355, looked up)
Serum …: AKLIALTLLGMGLALFRNHQSSYQTRLNALREVQPVELPNCNLVKGIETGSEDLEILPNGLAFISSGLKYPGIKSFNPNSPGKILLMDLNEEDPTVLELGITGSKFDVSSFNPHGISTFTDEDNAMYLLVVNHPDAKSTVELFKFQEEEKSLLHLKTIRHKLLPNLNDIVAVGPEHFYGTNDHYFLDPYLQSWEMYLGLAWSYVVYYSPSEVRVVAEGFDFANGINISPDGKYVYIAELLAHKIHVYEKHANWTLTPLKSLDFNTLVDNISVDPETGDLWVGCHPNGMKIFFYDSENPPASEVLRIQNILTEEPKVTQVYAENGTVLQGSTVASVYKGKLLIGTVFHKALYCEL
[1]; cocultures incubated 8 hrs with agent, agent removed before LDL 250 μg/ml
  ability of pretreated artery wall cocultures to oxidize LDL: rendered the artery wall cells incapable of oxidizing IDL
[1]; human LDL incubated with agent, re-isolated, then cocultures 8 hrs
  oxidation by artery wall cells of LDL pre-incubated with the agent: rendered the LDL resistant to oxidation
[2]
  LDL-induced monocyte chemotaxis in pretreated cocultures: prevented LDL-induced monocyte chemotaxis
[3]
  biologic activity (induction of monocyte chemotactic activity) of Ox-PAPC, POVPC, PGPC, PEIPC after incubation with enzyme: destruction of the biologic activity of each
